# Source: PMC6283576, “Structural insight into substrate and product binding in an archaeal mevalonate kinase” (PLoS ONE, 2018)
# B1: mevalonate kinase from Methanosarcina mazei (enzyme)
# chain: MVSCSAPGKIYLFGEHAVVYGETAIACAVELRTRVRAELNDSITIQSQIGRTGLDFEKHPYVSAVIEKMRKSIPINGVFLTVDSDIPVGSGLGSSAAVTIASIGALNELFGFGLSLQEIAKLGHEIEIKVQGAASPTDTYVSTFGGVVTIPERRKLKTPDCGIVIGDTGVFSSTKELVANVRQLRESYPDLIEPLMTSIGKISRIGEQLVLSGDYASIGRLMNVNQGLLDALGVNILELSQLIYSARAAGAFGAKITGAGGGGCMVALTAPEKCNQVAEAVAGAGGKVTITKPTEQGLKVD
# notes: mevalonate kinase (MmMK), Methanosarcina mazei; codon-optimized gene cloned into pSKB3 (modified pET28b); also called MmMK; MK; source: E. coli BL21(DE3), purified (Ni-NTA)
# Target: the molecule itself
# Assay: crystal structure; MmMK with mevalonate (2.10 Å) or 5-phosphomevalonate (2.46 Å); space group P2(1)2(1)2(1), two molecules in the asymmetric unit; 100 mM Bis-Tris pH 5.5, sodium potassium tartrate, PEG 8,000 or 10,000
protein,measurement,value
B1,binding result,binds
